Source: the RNAGym collection of RNA variant scans (doi:10.1073/pnas.2313332121)

B1: TPR t1 (parent)
chain: GACCAAUCUGCCCUCAGAGCUCGAGAACAUCUUCGGAUGCAGAGGAGGCAGGCUUCGGUGGCGCGAUAGCGCCAACGUCCUCAACCUCCAAUGCAUCCCACCACAUGAUGAUGCCUGAAGAGCCUUGGUUUUUUG

Variants of: B1
Assay: polymerase ribozyme fitness, log enrichment relative to wild type (log ratio); higher = more active; in vitro selection for triplet polymerase activity
Outline: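 Frozen incubation at −7 °C formed the core of a single, triplicate in vitro selection round applied to PCR-built, transcribed mutant libraries of each subunit of a heterodimeric triplet polymerase ribozyme. Extended constructs were gel-excised, captured with streptavidin beads and amplified by RT-PCR, and input and output libraries were Illumina-sequenced with a filter of ≥10 input reads and ≥1 read per output. Fitness is the logarithm of genotype enrichment relative to wild-type enrichment, with inverse-variance-weighted replicate averaging, and the logarithm is base 2.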

Point of comparison: GACCAAUCUGCCCUCAGAGCUCGAGAACAUCUCCGGAUGCAGAGGAGGCAGGCUUCGGUGUCGCGAUAGCGCCAACGUCCUCAACCUCCAAUGCAUCCCACCACAUGAUGAUGCCUGAAGAGCCUUGGUUUUUUG [U33C G61U], “polymerase ribozyme fitness (log ratio)” value -3.04. Against it:
- GACCAAUCUGCCCUCAGAGCUCGAGACCAUCUUCGGAUGCAGAGGAGGCAGGCUUCGGUGGGGCGAUAGCGCCAACGUCCUCAACCUCCAAUGCAUCCCACCACAUGAUGAUGCCUGAAGAGCCUUGGUUUUUUG [A27C C62G] — lower, -4.48
- GACCAAUCUGCCCUCAGAGCUCGAGAACAUCUUCGGAUGCAGAGGAGGCAGGCUUCGGUGGCGCGAUAGCGCCAACGUCCUCAACCUCCAAUGAAUCCCACCACAUGAUGAUGCCUGAAGAGCCUUGGGUUUUUG [C94A U129G] — higher, -1.07
- GACCAAUCUGCCCUCAGAGUUCGAGCACAUCUUCGGAUGCAGAGGAGGCAGACUUCGGUGGCGCGAUAACGGCAACGUCCUCAACCUCCAAUGCAUCCCACCACAUGAUGAUGCCUGGACAGCCUGGGUUUUUUG [C20U A26C G52A G69A C72G A118G G120C U126G] — lower, -6.5
- GACCAAUCUGCUCUCAGAGCUCGAGAACUUCUUCGGAUGCAGAGGAGGCAGGGUUCGGUGGCGCGAUAGCGCCUACGUCCUCAACCUCCAAUGCAUCCCACCACAUGAUGAUGCCUGAAGAGCCUUGGUUUUUUG [C12U A29U C53G A74U] — higher, -2.34
- GACCAAUCUGCCCUCAGCGCUCGAGAACAUCUUCGGAUGCAGAGGAGGCAGGCUUGGGUGGCGCGAUAGCGCCAACGUCCUCAACCUCCAAUGCAUCCCACCACAUGAUGAUGCCUGAAGAGCAUUGGUUUUUUG [A18C C56G C124A] — higher, -0.202
- GACCAAUCUGCCCUCAGAGCUCGAGAAAAUCUUCGGAUGCAGAGGAGGCAGGCUUCGGUGGCGCGAUAGCGCCAACGUCCUCAACCUCCAAUGCAUCCUACCACAAGAUGAUGCCUGAAGAGCCUUGGUUUUUUG [C28A C99U U106A] — lower, -5.34
- GACCAAUCUGCCCUCAGAGCUCGAGAACAUCUUCGGAUGCAGAGGAGGCAGGCUUCGGUGGCGCGAUAGCGCCAACGUCCUCAACCUCCAAUGCAUCCCACCACAUGAUGAGGCCUGAAGAGGCUUGGUUUUUUG [U112G C123G] — higher, 0.429
- GACCAAUCUGCCCUCAGAGCUCGAGAACAUCUUCGGAGGCAGAGGAGGCAGGCUUCGGUGGGGCGAUAGCGCCAACGUCCUCAACAUCCAAUGCAUCCCACCACAUGAUGAUGCCUGAAGAGCAUUGGUUUUUUG [U38G C62G C86A C124A] — higher, -2.75
- GACCAAUCUGCCCUCAGAGCUCGAGAACAUCUUCGGAUGCAGAGGAGGCAGGCUUCGGUGGCGCGAUAGGGCCAACGUCCUCAACCUCCAAUGCAUCCCACCACAUGAUGAUGCCUGAAGAGCCUUGGUUUUGUG [C70G U133G] — lower, -3.44
- GACCAAUUUGCCCUCAGAGCUCGAGAACAUCUUCGGAUGCAGAGGUGGCAGGCUUCGGUGACGCGAUAGCGCCAACGUCCUCAACCUCCAAUGCAUCCCAACACAUGAUGAUUCCUGAAGAGCCUUGGUUUUUUG [C8U A46U G61A C101A G113U] — higher, -2.36
- GUCCAAUCUGCCCUCAGAGCUCGAGAACAUCUUCGGAUGCAGAGGAGGCAGGCUUAGGUGGCUCGAUAGCGCCAACGUCCUCAACCUCCAAUGCAUCCCACCACAAGAUGAUGCGUGAAGAGCCUUGGUUUUUUG [A2U C56A G63U U106A C115G] — lower, -6.59
- GACCAAUCUGCCCUCAGAGCUCGAGAACAUCUUCGGAUGCAGAGGAGGCGGGCUUCGGUGGCGCGAUAGCGCCAACGUCCUCAACCUCCAAUGCAUCCCACCACAUGAUGAUCCCUGAAGAGCCUUGGUUUUUUG [A50G G113C] — higher, -1.84
- GACCAAUCUGCCCUCAGAGCUCGAGAACAUCUUCGGAUGCAAAGGAGGCAGGCUUCGGUGGCGCGAUAGUGCCAACGUCCACAACCUCCAAUUCAUCCCACCACAUGAUGAUGCCUGAAGAGCCUUGGUUUUUUG [G42A C70U U81A G93U] — lower, -6.73
- GACCAAUCUGCCCUCAGAGCUCGAGAACAUCUUCGGAUGCAGAGGAGGCAGGCUUCGGUGGCGCGAUAGCGCCAACGUGCUCAACCUCCAAUGCAUCCCACCGCAUGAUGAUGCCUGAAGAGCCUUGGUUUUUUG [C79G A103G] — lower, -5.92
- GACCAAUGUGCCCUCAGAGCUCGAGAACAUCUUCGGAUGCAGAGGAGGCAGGCUUCGGUGGCGCGAUAGCGCCAACGUCCUCAACCUCCAAUGCAUCCCACCACAUUAUGAUGCCUGAAGAGCCUUGGUUUUUUG [C8G G107U] — lower, -5
- GACCAAUCUCCCCUCAGAGCUCGAGAACAUCUUCGGAUGCAGAGGAGGCAGUCUUCGCUGGCGCGAUAGCGCCAACGUCCUCAUCCUCCAAUGCAUCCCACCACAUGAUGAUGCCUGAAGAGCCUUGGUUUUUUG [G10C G52U G58C A84U] — higher, -2.42
- GACCAAUCUGCCCUCAGAGCUCGAGAACAUCUUCGGAUGCAGAGGAGGCAGGCUUCGGUGGCGCGAUAGCGGCAACGUCCUCAACGUCCAAUGCAUCCCACCACAUGAAGAUGACUGAACAGCCUUGGUUUUUUG [C72G C86G U109A C114A G120C] — lower, -5.75
- GACCAAUCUGCCCUCAGAGCUCGAGAACAUCUUCGGAUGCAGAGGAGGCAGACUUCGGUGGCGCGAUAACGCCAACGUCCUCAACCUCCAAUGCAUCCCACCACAUGAUGAUGCCUGAAGAGCCUUGGUUUUUUG [G52A G69A] — lower, -3.61
- GACCAAUCUGCCCUAAGAGCUCGAGAACAUCUUCGGAUGCAGAGGAGGCAGGCUUCGGUGGUGCGAUAGCGCCAACGUCCUCAGCCUCCAAUGUAUCCCACCACAUGAUGAUGCCUGAAGAGCCUUGGUUUUUUG [C15A C62U A84G C94U] — within 0.2 log units, -3.06
- GACCAAUCUGCCCUCAGAGCUCGAGAACAUCUUCGGAUGCAGAGGAGGCAGGCUUCGGUGGCGCGAUAGCGCCAACGUCCUCAACCUCCAAUGCAUCCCACCACAUGAUGAUGCCUCAAGAGCCUUGGUUUUGUG [G117C U133G] — lower, -3.89
